Experimental data taken from publication PMC4989518, “In situ expression of (R)-carbonyl reductase rebalancing an asymmetric pathway improves stereoconversion efficiency of racemic mixture to (S)-phenyl-1,2-ethanediol in Candida parapsilosis CCTCC M203011” (Microbial Cell Factories, 2016).

Tested on: OC[C@H](O)c1ccccc1
Experiment: purified protein
Conditions: oxidation to 2-HAP, NAD+, 100 mM acetate pH 6.5, 35 °C, enzyme from C. parapsilosis/pCP-rcr

Question: What does the source list for “recombinant RCR (C. parapsilosis/pCP-rcr) (Lodderomyces parapsilosis)”?
Answer: Km: 6.31 ± 0.09 mM; kcat: 3.19 ± 0.22 s⁻¹; kcat/Km: 510 M⁻¹ s⁻¹
